Reference: patent US10562947B2, “Compositions and methods for preventing or treating diseases, conditions or processes characterized by aberrant fibroblast proliferation and extracellular matrix deposition” (MOERAE MATRIX, INC., priority 2011, dated 2020)

Tests used:
Assay in all cases: Kinase Profiling Assay
Type in all cases: biochemical
Details in all cases: 100 μM peptide
[1] = molecular target: Axl(h) (Homo sapiens, UniProt P30530)
How it was run: (§1)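 Peptides designed to inhibit MK2 were checked against a broad human kinase panel (266 enzymes), with duplicate measurement of every activity.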

[2] = molecular target: Met(h) (Homo sapiens, UniProt P08581)
How it was run: as §1

[3] = molecular target: Rsk4(h) (Homo sapiens, UniProt Q9UK32)
How it was run: as §1

[4] = molecular target: MSK2(h) (Homo sapiens, UniProt O75676)
How it was run: as §1

[5] = molecular target: T1, PRK2(h) (Homo sapiens, UniProt Q16513)
T1 construct: purchased Millipore (IC50 Profiler Express service)
How it was run: as §1

[6] = molecular target: Syk(h) (Homo sapiens, UniProt P43405)
How it was run: as §1

[7] = molecular target: MSK1(h) (Homo sapiens, UniProt O75582)
How it was run: as §1

[8] = molecular target: CDK2/cyclinA(h) (Homo sapiens, UniProt P24941)
How it was run: as §1

[9] = molecular target: EphA4(h) (Homo sapiens, UniProt P54764)
How it was run: as §1

[10] = molecular target: EphA7(h) (Homo sapiens, UniProt Q15375)
How it was run: as §1

[11] = molecular target: SAPK2b(h) (Homo sapiens, UniProt Q15759)
How it was run: as §1

[12] = molecular target: T2, Rsk2(h) (Homo sapiens, UniProt P51812)
T2 construct: purchased Millipore (IC50 Profiler Express service)
How it was run: as §1

[13] = molecular target: DAPK2(h) (Homo sapiens, UniProt Q9UIK4)
How it was run: as §1

[14] = molecular target: PKBα(h) (Homo sapiens, UniProt P31749)
How it was run: as §1

[15] = molecular target: MLK1(h) (Homo sapiens, UniProt P80192)
How it was run: as §1

[16] = molecular target: T3, EphB1(h) (Homo sapiens, UniProt P54762)
T3 sequence (P54762 18-984): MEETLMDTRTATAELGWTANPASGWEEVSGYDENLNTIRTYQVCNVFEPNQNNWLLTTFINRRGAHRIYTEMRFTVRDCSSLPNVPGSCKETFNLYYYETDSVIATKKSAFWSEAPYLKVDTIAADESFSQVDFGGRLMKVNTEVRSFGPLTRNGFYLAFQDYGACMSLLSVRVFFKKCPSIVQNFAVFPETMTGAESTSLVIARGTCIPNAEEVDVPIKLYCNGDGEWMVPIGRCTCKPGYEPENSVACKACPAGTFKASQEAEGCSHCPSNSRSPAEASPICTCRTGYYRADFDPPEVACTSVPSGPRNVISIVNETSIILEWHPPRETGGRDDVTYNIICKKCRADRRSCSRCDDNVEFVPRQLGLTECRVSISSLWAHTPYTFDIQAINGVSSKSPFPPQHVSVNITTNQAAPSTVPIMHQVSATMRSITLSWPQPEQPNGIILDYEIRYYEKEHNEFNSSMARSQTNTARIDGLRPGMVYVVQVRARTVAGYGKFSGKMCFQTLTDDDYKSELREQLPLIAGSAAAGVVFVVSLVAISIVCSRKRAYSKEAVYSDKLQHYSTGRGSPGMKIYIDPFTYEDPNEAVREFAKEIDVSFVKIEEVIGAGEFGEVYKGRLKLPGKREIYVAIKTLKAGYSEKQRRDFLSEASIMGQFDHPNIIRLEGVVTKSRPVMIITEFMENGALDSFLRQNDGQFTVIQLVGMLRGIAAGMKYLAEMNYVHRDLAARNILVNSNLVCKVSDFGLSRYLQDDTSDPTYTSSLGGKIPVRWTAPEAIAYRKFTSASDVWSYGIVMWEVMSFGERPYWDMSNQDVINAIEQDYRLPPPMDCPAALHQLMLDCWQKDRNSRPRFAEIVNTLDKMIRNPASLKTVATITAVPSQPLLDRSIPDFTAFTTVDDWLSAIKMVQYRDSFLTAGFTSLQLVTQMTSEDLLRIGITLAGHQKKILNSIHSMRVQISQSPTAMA
How it was run: as §1

[17] = molecular target: Met(D1246N)(h) (Homo sapiens, UniProt P08581, D1228N)
How it was run: as §1

[18] = molecular target: VRK2(h) (Homo sapiens, UniProt Q86Y07)
How it was run: as §1

[19] = molecular target: ACK1(h) (Homo sapiens, UniProt Q07912)
How it was run: as §1

[20] = molecular target: FGFR3(h) (Homo sapiens, UniProt P22607)
How it was run: as §1

[21] = molecular target: BTK(h) (Homo sapiens, UniProt Q06187)
How it was run: as §1

T2 sequence (P51812 whole entry): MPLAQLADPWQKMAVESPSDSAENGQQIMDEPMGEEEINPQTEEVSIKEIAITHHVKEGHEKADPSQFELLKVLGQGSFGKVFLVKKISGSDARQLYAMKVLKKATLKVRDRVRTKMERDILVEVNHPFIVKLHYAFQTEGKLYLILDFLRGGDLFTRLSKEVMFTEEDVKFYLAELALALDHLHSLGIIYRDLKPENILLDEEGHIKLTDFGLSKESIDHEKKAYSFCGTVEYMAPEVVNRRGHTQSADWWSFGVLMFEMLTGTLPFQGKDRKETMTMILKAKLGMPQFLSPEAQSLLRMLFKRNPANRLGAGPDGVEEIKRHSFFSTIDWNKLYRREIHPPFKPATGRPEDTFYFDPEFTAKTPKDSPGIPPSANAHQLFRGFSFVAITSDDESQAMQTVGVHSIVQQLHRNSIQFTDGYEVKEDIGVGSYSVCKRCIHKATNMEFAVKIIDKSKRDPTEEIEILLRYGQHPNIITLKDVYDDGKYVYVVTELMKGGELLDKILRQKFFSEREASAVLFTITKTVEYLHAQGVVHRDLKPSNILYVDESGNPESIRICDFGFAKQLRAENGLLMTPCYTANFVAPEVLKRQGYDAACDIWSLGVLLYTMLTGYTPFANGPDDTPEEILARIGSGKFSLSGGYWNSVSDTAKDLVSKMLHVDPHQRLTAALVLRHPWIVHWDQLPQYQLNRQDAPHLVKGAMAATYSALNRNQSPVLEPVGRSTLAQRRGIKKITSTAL
Chain of EphA4(h) (P54764 20-986): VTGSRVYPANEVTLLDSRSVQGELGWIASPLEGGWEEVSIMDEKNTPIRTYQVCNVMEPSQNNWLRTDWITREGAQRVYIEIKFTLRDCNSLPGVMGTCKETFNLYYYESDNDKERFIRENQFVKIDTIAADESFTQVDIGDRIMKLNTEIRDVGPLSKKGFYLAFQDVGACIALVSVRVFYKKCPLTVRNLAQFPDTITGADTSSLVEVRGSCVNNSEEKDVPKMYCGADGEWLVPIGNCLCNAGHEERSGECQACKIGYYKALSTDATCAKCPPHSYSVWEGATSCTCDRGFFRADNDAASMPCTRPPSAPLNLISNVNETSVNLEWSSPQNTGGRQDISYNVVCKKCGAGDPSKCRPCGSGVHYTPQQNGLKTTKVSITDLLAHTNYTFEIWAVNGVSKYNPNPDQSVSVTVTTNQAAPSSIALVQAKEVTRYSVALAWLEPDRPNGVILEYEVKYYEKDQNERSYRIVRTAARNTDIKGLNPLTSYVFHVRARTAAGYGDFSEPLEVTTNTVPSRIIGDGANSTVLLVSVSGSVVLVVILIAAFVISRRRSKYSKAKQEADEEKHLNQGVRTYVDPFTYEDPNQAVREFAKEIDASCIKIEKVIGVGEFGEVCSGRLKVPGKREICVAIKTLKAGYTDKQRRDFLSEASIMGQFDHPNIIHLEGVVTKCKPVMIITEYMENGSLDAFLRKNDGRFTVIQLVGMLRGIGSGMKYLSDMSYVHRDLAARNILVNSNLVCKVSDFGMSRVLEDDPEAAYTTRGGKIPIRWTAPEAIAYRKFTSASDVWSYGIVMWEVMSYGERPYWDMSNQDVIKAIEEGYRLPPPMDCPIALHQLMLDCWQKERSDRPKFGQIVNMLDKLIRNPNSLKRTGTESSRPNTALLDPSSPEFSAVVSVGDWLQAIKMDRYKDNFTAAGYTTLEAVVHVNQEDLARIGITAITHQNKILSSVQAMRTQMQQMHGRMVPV
Chain of MSK2(h) (O75676 whole entry): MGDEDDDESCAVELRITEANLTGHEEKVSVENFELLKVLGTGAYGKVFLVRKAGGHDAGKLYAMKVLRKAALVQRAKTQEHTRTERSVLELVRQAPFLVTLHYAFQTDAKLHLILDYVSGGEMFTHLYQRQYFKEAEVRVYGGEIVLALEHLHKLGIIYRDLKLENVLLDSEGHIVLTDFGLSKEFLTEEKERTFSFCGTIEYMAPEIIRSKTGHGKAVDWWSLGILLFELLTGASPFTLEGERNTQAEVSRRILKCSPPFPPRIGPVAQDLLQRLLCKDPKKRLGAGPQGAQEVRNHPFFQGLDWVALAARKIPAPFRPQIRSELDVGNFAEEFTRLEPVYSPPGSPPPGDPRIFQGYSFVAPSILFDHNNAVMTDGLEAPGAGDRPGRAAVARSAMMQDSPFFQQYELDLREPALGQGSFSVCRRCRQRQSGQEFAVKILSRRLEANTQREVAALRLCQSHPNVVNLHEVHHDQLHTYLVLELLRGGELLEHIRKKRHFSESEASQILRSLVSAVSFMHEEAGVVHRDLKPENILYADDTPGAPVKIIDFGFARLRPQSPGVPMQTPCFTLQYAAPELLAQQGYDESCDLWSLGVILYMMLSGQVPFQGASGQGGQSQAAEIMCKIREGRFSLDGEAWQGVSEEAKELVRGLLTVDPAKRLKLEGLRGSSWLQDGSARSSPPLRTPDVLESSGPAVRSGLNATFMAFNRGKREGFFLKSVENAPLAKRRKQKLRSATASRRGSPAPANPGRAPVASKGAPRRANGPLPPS
Chain of ACK1(h) (Q07912 whole entry): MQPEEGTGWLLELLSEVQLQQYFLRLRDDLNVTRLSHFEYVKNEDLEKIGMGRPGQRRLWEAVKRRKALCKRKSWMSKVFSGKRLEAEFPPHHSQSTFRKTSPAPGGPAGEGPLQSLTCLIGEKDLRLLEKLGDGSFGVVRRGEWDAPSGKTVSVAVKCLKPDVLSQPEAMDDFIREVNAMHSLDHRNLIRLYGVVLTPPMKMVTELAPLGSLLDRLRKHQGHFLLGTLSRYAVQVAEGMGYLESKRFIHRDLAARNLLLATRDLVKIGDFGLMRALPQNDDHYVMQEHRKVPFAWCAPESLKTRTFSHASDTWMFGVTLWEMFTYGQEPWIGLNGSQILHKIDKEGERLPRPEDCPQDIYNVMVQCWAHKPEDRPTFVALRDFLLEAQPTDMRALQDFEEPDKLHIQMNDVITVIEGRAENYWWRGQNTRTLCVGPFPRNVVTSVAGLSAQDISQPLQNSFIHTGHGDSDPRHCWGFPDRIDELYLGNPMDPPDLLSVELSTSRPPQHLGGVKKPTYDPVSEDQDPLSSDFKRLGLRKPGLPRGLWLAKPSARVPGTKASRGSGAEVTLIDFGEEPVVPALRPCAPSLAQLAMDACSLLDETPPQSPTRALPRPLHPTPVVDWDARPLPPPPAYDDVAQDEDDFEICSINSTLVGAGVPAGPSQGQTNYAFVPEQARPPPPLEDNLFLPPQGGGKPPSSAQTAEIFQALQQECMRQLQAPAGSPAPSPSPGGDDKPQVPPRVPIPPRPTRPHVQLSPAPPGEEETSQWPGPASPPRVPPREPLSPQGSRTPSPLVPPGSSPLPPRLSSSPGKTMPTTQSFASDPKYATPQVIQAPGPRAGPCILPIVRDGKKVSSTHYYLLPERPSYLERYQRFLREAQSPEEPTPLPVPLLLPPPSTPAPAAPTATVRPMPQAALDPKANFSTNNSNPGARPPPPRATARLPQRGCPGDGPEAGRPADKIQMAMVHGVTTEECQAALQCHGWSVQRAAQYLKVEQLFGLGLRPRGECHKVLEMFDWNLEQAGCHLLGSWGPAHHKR
Chain of SAPK2b(h) (Q15759 whole entry): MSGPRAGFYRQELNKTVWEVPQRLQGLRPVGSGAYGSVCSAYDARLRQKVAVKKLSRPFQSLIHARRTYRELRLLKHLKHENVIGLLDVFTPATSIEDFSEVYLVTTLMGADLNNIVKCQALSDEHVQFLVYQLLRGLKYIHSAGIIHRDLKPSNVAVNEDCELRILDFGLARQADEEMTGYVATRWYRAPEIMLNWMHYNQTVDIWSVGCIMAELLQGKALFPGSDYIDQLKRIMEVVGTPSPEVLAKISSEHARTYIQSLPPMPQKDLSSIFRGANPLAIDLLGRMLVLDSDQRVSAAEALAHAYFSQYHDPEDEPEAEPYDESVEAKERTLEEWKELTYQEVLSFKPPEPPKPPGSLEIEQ
Chain of MLK1(h) (P80192 whole entry): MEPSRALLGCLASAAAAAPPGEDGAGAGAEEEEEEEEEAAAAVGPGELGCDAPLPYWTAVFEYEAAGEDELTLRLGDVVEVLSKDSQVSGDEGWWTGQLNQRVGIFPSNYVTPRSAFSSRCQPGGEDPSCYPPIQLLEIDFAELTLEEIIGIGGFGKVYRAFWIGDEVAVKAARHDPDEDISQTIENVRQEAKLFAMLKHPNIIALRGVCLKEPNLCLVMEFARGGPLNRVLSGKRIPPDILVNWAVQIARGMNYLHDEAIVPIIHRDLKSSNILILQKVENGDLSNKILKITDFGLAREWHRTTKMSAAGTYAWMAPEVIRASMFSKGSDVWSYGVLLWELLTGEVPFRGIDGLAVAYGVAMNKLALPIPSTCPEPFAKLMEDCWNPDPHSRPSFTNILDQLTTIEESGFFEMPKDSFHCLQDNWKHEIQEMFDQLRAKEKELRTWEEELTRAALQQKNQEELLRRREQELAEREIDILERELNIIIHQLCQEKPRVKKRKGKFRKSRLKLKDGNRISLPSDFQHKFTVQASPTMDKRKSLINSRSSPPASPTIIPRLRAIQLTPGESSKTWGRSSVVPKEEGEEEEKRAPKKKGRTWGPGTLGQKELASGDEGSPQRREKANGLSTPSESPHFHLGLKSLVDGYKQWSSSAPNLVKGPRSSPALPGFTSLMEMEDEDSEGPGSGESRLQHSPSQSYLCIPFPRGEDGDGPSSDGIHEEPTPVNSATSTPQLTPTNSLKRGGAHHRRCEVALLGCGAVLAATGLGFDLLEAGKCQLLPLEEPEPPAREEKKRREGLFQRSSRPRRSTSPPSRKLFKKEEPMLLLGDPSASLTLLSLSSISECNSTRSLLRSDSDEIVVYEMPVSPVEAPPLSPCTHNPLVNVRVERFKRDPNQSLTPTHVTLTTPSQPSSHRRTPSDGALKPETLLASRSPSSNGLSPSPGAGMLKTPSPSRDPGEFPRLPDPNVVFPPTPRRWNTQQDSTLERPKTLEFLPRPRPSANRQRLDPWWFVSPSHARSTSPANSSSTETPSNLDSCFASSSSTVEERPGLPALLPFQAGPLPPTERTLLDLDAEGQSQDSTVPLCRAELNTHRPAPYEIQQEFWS

For FAKLAARLYRKALARQLGVAA [MMI-0300], the “Axl(h) % activity” value [1] was 52%, the “Met(h) % activity” value [2] was 65% and the “Rsk4(h) % activity” value [3] was 90%. For the same sequence, the “MSK2(h) % activity” value [4] was 56%, the “PRK2(h) % activity” value [5] was 33% and the “Syk(h) % activity” value [6] was 24%. The “MSK1(h) % activity” value [7] was 32%, the “CDK2/cyclinA(h) % activity” value [8] was 86% and the “EphA4(h) % activity” value [9] was 88%. For the same sequence, the “EphA7(h) % activity” value [10] was 159%, the “SAPK2b(h) % activity” value [11] was 81% and the “Rsk2(h) % activity” value [12] was 51%. For the same sequence, the “DAPK2(h) % activity” value [13] was 32%, the “PKBα(h) % activity” value [14] was 57% and the “MLK1(h) % activity” value [15] was 40%. For the same sequence, the “EphB1(h) % activity” value [16] was 44%, the “Met(D1246N)(h) % activity” value [17] was 82% and the “VRK2(h) % activity” value [18] was 161%.
For “HRRIKAWLKKIKALARQLGVAA (Mammalian) [MMI-0500]”, the “Axl(h) % activity” value [1] was 12%, the “Met(h) % activity” value [2] was 27% and the “ACK1(h) % activity” value [19] was 64%. For the same sequence, the “Rsk4(h) % activity” value [3] was 29%, the “MSK2(h) % activity” value [4] was 14% and the “PRK2(h) % activity” value [5] was 7%. The “Syk(h) % activity” value [6] was 5%, the “MSK1(h) % activity” value [7] was 8% and the “CDK2/cyclinA(h) % activity” value [8] was 87%. The “EphA4(h) % activity” value [9] was 48%, the “EphA7(h) % activity” value [10] was 189% and the “SAPK2b(h) % activity” value [11] was 42%. For the same sequence, the “Rsk2(h) % activity” value [12] was 14%, the “FGFR3(h) % activity” value [20] was 10% and the “DAPK2(h) % activity” value [13] was 3%. For the same sequence, the “PKBα(h) % activity” value [14] was 30%, the “MLK1(h) % activity” value [15] was 43% and the “EphB1(h) % activity” value [16] was 37%. For the same sequence, the “Met(D1246N)(h) % activity” value [17] was 90%, the “BTK(h) % activity” value [21] was 18% and the “VRK2(h) % activity” value [18] was 169%.
In the case of KAFAKLAARLYRKALARQLGVAA [MMI-0400], the “Axl(h) % activity” value [1] is reported as 41%, the “Met(h) % activity” value [2] is reported as 62% and the “ACK1(h) % activity” value [19] is reported as 95%. The “Rsk4(h) % activity” value [3] was 91%, the “MSK2(h) % activity” value [4] was 52% and the “PRK2(h) % activity” value [5] was 27%. For the same sequence, the “Syk(h) % activity” value [6] was 9%, the “MSK1(h) % activity” value [7] was 28% and the “CDK2/cyclinA(h) % activity” value [8] was 92%. The “EphA4(h) % activity” value [9] was 65%, the “EphA7(h) % activity” value [10] was 222% and the “SAPK2b(h) % activity” value [11] was 82%. The “Rsk2(h) % activity” value [12] was 38%, the “FGFR3(h) % activity” value [20] was 0% and the “DAPK2(h) % activity” value [13] was 16%. For the same sequence, the “PKBα(h) % activity” value [14] was 67%, the “MLK1(h) % activity” value [15] was 33% and the “EphB1(h) % activity” value [16] was 58%. For the same sequence, the “Met(D1246N)(h) % activity” value [17] was 31%, the “BTK(h) % activity” value [21] was 94% and the “VRK2(h) % activity” value [18] was 185%.
With “YARAAARQARAKALNRQLGVA (Mammalian) [MMI-0200]” the “Axl(h) % activity” value [1] was 99%, the “Met(h) % activity” value [2] was 71% and the “ACK1(h) % activity” value [19] was 97%. The “Rsk4(h) % activity” value [3] was 125%, the “MSK2(h) % activity” value [4] was 88% and the “PRK2(h) % activity” value [5] was 74%. For the same sequence, the “Syk(h) % activity” value [6] was 36%, the “MSK1(h) % activity” value [7] was 50% and the “EphA4(h) % activity” value [9] was 127%. For the same sequence, the “EphA7(h) % activity” value [10] was 220%, the “SAPK2b(h) % activity” value [11] was 95% and the “Rsk2(h) % activity” value [12] was 101%. The “FGFR3(h) % activity” value [20] was 208%, the “DAPK2(h) % activity” value [13] was 92% and the “PKBα(h) % activity” value [14] was 110%. For the same sequence, the “MLK1(h) % activity” value [15] was 84%, the “EphB1(h) % activity” value [16] was 95% and the “Met(D1246N)(h) % activity” value [17] was 149%. The “BTK(h) % activity” value [21] was 100%.
